Laboratory results: patent publication US20040229289A1, “Antigen binding peptides (abtides) from peptide libraries” (Cytogen Corporation, priority 1994, published 2004)

T1: PEM peptide (human)
T1 peptide: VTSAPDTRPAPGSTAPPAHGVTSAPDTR


What follows are molecules tested against T2, PEM (Homo sapiens, UniProt P15941) (assay: ELISA of phage from the MP-1 saturation mutagenesis library for binding to PEM). Conditions: phage-displayed abtide from MP-1 saturation mutagenesis library.
T2 construct: made in house; host or cells: chemical peptide synthesis
Procedure: A saturation mutagenesis library based on one of the PEM abtides, MP-1, was constructed. Nucleotide sequences encoding the MP-1 abtide were synthesized using a doping scheme similar to that described in Section 5.3 whereby each nucleotide was contaminated with 9% of each of the other 3 nucleotides (e.g. G=73% G, 9% A, 9% T, 9° C.). The resulting mutagenic oligonucleotides were used to construct a library by TSAR library methods described above (see FIG. 13).
The resulting library was screened to identify phage expressing abtides capable of binding to PEM. The binding of isolated phage to PEM was confirmed by an ELISA assay.

Row | Molecule | binding of isolated phage to PEM (ELISA)
1 | GPRSWMGQPRGSDAGSCKWAGCGDAPMWRASTPGHGGPPNRGS [E85] | Positive Binding Sequences
2 | GSALLTSKGCVRGPGGLMRPGCGNDRLGKSSTYAHGGWIKTGP (phage displayed) [E21] | Positive Binding Sequences
3 | GAPLWQGDPADEVLGGSMIPGCGIGALSQTFTPTPGGSRKNVT (phage displayed) [E37] | Negative Binding Sequences
4 | SSGVGNGKPRSWAPDALNGGCGNIQFANTITPDRGGSCNQTL (phage displayed) [E24] | Negative Binding Sequences
5 | VSRAWSGKPRLMGSHGLNCPGCGKGHSGIMFIPDPAGSANTPP [E67] | Positive Binding Sequences
6 | GLSLVRGDSWGSGAGGWKRHGCGHGPMYNPQTPARGGSCTRNT [E66] | Positive Binding Sequences
7 | GTRVPPGFALRGGRDGLSWAGCGKAPISKTYTSARGRSRKKGS (phage displayed) [E3] | Negative Binding Sequences
8 | RSAVSEGKPREIVPGGCMWPGCGNGRKSNTLTHGPEQFQEIEP (phage displayed) [E15] | Negative Binding Sequences
9 | GSPVWMGSTRWTGHGWFRSQGCGNVPRTNSCAPAGKDSQNKGP [E65] | Positive Binding Sequences
10 | GSSGWKVKHRCGGPGTLQRPGCGNLPLGHTFPPTRGGSHMEGA [E84] | Positive Binding Sequences
11 | GAPVSRCKPACGGFWGVNWPGCGNASMCKTFTNGHGVSSDNGH (phage displayed) [E22] | Positive Binding Sequences
12 | GPPVWSAKSRWTGTGVLNWPGCGKVPSCSTYTPSRDRSRKSDP (phage displayed) [E16] | Positive Binding Sequences
13 | GQPECRITSGCCGTDGNKWLGCGKVDMCNTLNPAVGCHGTNGS (phage displayed) [E34] | Negative Binding Sequences
14 | GSPVWSGDNRWRGSSPLKRPGCGNGAKCNTLKDNRKDSRKTKH (phage displayed) [E33] | Positive Binding Sequences
15 | ADPVCSRKPDGGGLRGLRWPGCGKGPILYNVTAARGGSRNNGP [E70] | Positive Binding Sequences
16 | VSTGWSGTPRWCAPGGKQGSGCGNGPRWTTLTPDLGGTRKYGP (phage displayed) [E4] | Positive Binding Sequences

Row | Molecule | binding of isolated phage to PEM (ELISA)
17 | GDPECRGKPRGRWTGSLACTGCGNGPNSKICTRARGVSRNKGP [E60] | Negative Binding Sequences
18 | GAHGYKNGSTCTGLGGWRCRGCGKGAMCNNPSPAGGAYHNQGP (phage displayed) [E29] | Positive Binding Sequences
19 | GAPLWCEKLSGTGSGGFKWPGCGSGPTYNTFTPARVGSDNKWP [E7] | Positive Binding Sequences
20 | GAPVWRGNRWCSDNGELERPGCGYGPRFNILPPGRGNSRKPSP [E73] | Positive Binding Sequences
21 | G PQGSEHQCCSGHWGLKFPGCGNGPICNNFTALRGASRKNGP (GPQGSEHQCCSGHWGLKFPGCGNGPICNNFTALRGASRKNGP) [E62] | Positive Binding Sequences
22 | REPVVGGKPWCRGPGGLRWRGCGKSQFDKIITLSRDNRRDKRP [E83] | Negative Binding Sequences
23 | GSSVCGGQPSGRGFGGLPGPGCGNGPTSNTLTSARGGFPNKGL (phage displayed) [E27] | Negative Binding Sequences
24 | CAPMWSGKPPWCVGGGVKFRGCGNRPDCNIITPRLVESRDKAL [E68] | Positive Binding Sequences
25 | GAPVVGDILWCSGARGAKWPGCGKGPTNKTFSHSRGGTQKSGL [E90] | Positive Binding Sequences
26 | G PLLPGEAAVHGARGLMRSGCGNGPTWNRLTAACRDSRNKGP (GPLLPGEAAVHGARGLMRSGCGNGPTWNRLTAACRDSRNKGP; phage displayed; extra N-terminal G) [E44] | Positive Binding Sequences
27 | GAPVWRGNPRWRGPGGFKWPGCGNGPMCNTFTPARGGSRNNGP [MP-1] | Positive Binding Sequences
28 | EALVCRGKPPWSGPAGLLWQGCGTGPVSRTFTSAQGRSRNKTS [E88] | Positive Binding Sequences
29 | QARVSMAISCRSGPSDLMHQGCGYGPRCNPDTTDSGGSHTNTP (phage displayed) [E49] | Negative Binding Sequences
30 | AGRELRQDEGEGGAGADVARLREGPICSTFTPARGGSCPSGL (phage displayed) [E43] | Negative Binding Sequences
31 | STPGCSGYSGSGDPRCLTCTACGNGHTRKTLTPAHGRSTHKEP [E72] | Negative Binding Sequences
32 | GEPVWCRHSGGRVQGGLDWLGCGDGPLRYTVTPARGGPSKHGP [E64] | Positive Binding Sequences

Biological target: T1, PEM peptide
Test: phage ELISA on PEM
Conditions: not given

Row | Molecule | binding result
33 | GAPVSRCKPACGGFWGVNWPGCGNASMCKTFTNGHGVSSDNGH [E22] | binds
34 | EALVCRGKPPWSGPAGLLWQGCGTGPVSRTFTSAQGRSRNKTS [E88] | binds
35 | GAPVWRGNRWCSDNGELERPGCGYGPRFNILPPGRGNSRKPSP [E73] | binds
36 | GSSGWKVKHRCGGPGTLQRPGCGNLPLGHTFPPTRGGSHMEGA [E84] | binds
37 | GPRSWMGQPRGSDAGSCKWAGCGDAPMWRASTPGHGGPPNRGS [E85] | binds
38 | VSTGWSGTPRWCAPGGKQGSGCGNGPRWTTLTPDLGGTRKYGP [E4] | binds
39 | GAPVVGDILWCSGARGAKWPGCGKGPTNKTFSHSRGGTQKSGL [E90] | binds
40 | GAPLWCEKLSGTGSGGFKWPGCGSGPTYNTFTPARVGSDNKWP [E7] | binds
41 | GPPVWSAKSRWTGTGVLNWPGCGKVPSCSTYTPSRDRSRKSDP [E16] | binds
42 | GSPVWSGDNRWRGSSPLKRPGCGNGAKCNTLKDNRKDSRKTKH [E33] | binds
43 | GSALLTSKGCVRGPGGLMRPGCGNDRLGKSSTYAHGGWIKTGP [E21] | binds
44 | GSPVWMGSTRWTGHGWFRSQGCGNVPRTNSCAPAGKDSQNKGP [E65] | binds
45 | GAHGYKNGSTCTGLGGWRCRGCGKGAMCNNPSPAGGAYHNQGP [E29] | binds
